These results are taken from the RNAGym collection of RNA variant scans (doi:10.7554/elife.90254).

To fix the notation:
B1: LINE1-mini (parent)
chain: GGCAGAGCUCAACACAGCGUGGCAAAGUGGCUGUGGCUAGACUGCC

Variants of B1 are the subject of this data set. Kind of data set: self-cleavage, relative activity (ratio to wild type); higher = more cleavage; in vitro, sequencing; the parent is a self-cleaving ribozyme.
For the variant G29C C45A, the self-cleavage was 0.45.

Take G29C C45U: the self-cleavage was found to be 0.67.

With G29C C45G, the self-cleavage is 0.19.

Take U28C A39U: the self-cleavage was 1.

For U28C A39C, the self-cleavage came to 0.1.

With U28C A39G, the self-cleavage was 0.09.

For the variant U28C C45U, the self-cleavage came out at 1.88.

In the case of U28C C45A, the self-cleavage worked out at 1.7.

For the variant U28C C45G, the self-cleavage stood at 0.44.

In the case of G29U, the self-cleavage is 1.09.

With G29C, the self-cleavage is 0.49.

On to G29A, for which the self-cleavage is 0.88.

On to U28G C37A, for which the self-cleavage was found to be 0.03.

U28G C37G: the self-cleavage was 0.03.

Turning to U28G C37U, the self-cleavage stood at 0.03.

Take G29C G30C: the self-cleavage is 0.23.

On to G29C G30U, for which the self-cleavage was determined as 0.67.

As to G29C G30A, the self-cleavage came out at 1.73.

Take U28G C45A: the self-cleavage amounted to 0.44.

With U28G C45G, the self-cleavage turned out to be 0.27.

Consider U28G C45U, for which the self-cleavage came out at 0.92.

On to U28A G36A, for which the self-cleavage is 0.14.

With U28A G36C, the self-cleavage amounted to 0.06.

U28A G36U: the self-cleavage amounted to 0.08.

In the case of G27U G40U, the self-cleavage was 0.13.

Turning to G27U G40A, the self-cleavage came to 0.13.

As to G27U G40C, the self-cleavage amounted to 0.16.

As for U28A G33A, the self-cleavage is 0.06.

As for U28A G33C, the self-cleavage is 0.03.

For U28A G33U, the self-cleavage was determined as 0.16.

Consider G29A G35U, for which the self-cleavage is 0.15.

G29A G35C: the self-cleavage came out at 0.09.

Turning to G29A G35A, the self-cleavage turned out to be 0.23.

Turning to G29C G36C, the self-cleavage was 0.05.

Turning to G29C G36A, the self-cleavage was determined as 0.02.

For G29C G36U, the self-cleavage is 0.04.

Consider G29A G40C, for which the self-cleavage came to 0.08.

Take G29A G40U: the self-cleavage was found to be 0.12.

Turning to G29A G40A, the self-cleavage was found to be 0.11.

Take U28G G30A: the self-cleavage was 0.9.

Consider U28G G30C, for which the self-cleavage is 0.77.

On to U28G G30U, for which the self-cleavage was found to be 0.77.

As to G29U A41C, the self-cleavage is 0.05.

G29U A41U: the self-cleavage stood at 0.9.

Turning to G29U A41G, the self-cleavage is 0.41.

Take U28G U32G: the self-cleavage came out at 0.24.

On to U28G U32C, for which the self-cleavage was 0.27.

Turning to U28G U32A, the self-cleavage came to 0.05.

Take U28C G30C: the self-cleavage amounted to 0.64.

Turning to U28C G30A, the self-cleavage turned out to be 0.96.

In the case of U28C G30U, the self-cleavage stood at 0.7.

With U28C G44U, the self-cleavage was 0.34.

Turning to U28C G44C, the self-cleavage turned out to be 0.27.

On to U28C G44A, for which the self-cleavage turned out to be 0.67.

For the variant G29U C37A, the self-cleavage came out at 0.13.

As to G29U C37G, the self-cleavage stood at 0.04.

For G29U C37U, the self-cleavage was determined as 0.05.

Take G27U U38G: the self-cleavage amounted to 0.03.

Take G27U U38C: the self-cleavage came to 0.58.

In the case of G27U U38A, the self-cleavage is 0.39.

With U28A A39G, the self-cleavage was determined as 0.05.

Regarding U28A A39C, the self-cleavage is 0.15.

On to U28A A39U, for which the self-cleavage was found to be 0.39.

As to U28A C45A, the self-cleavage was determined as 0.29.

As for U28A C45G, the self-cleavage came out at 0.24.

As to U28A C45U, the self-cleavage was determined as 1.28.

In the case of G27U U28C, the self-cleavage was 1.23.

As for G27U U28G, the self-cleavage was 1.08.

G27U U28A: the self-cleavage turned out to be 0.34.

For the variant U28G G44A, the self-cleavage worked out at 0.28.

On to U28G G44U, for which the self-cleavage stood at 0.23.

Take U28G G44C: the self-cleavage was 0.54.

As to G29U G44U, the self-cleavage came to 0.31.

Regarding G29U G44C, the self-cleavage worked out at 0.44.

In the case of G29U G44A, the self-cleavage is 0.41.

As to U28A G29C, the self-cleavage worked out at 0.16.

Turning to U28A G29A, the self-cleavage was 0.6.

Consider U28A G29U, for which the self-cleavage came out at 0.41.

For U28G A41U, the self-cleavage stood at 0.52.

Regarding U28G A41G, the self-cleavage stood at 0.27.

For U28G A41C, the self-cleavage stood at 0.04.

On to U28A U32C, for which the self-cleavage was determined as 0.18.

Turning to U28A U32G, the self-cleavage came out at 0.3.

Regarding G29U A39C, the self-cleavage was found to be 0.21.

In the case of G29U A39G, the self-cleavage was determined as 0.06.

As for G29U A39U, the self-cleavage was 0.7.

Consider U28C G35U, for which the self-cleavage was found to be 0.09.

In the case of U28C G35A, the self-cleavage stood at 0.21.

As to U28C G35C, the self-cleavage came to 0.13.

With G29A A41U, the self-cleavage turned out to be 0.74.

Take G29A A41C: the self-cleavage was determined as 0.05.

G29A A41G: the self-cleavage is 0.32.

In the case of G29C U34G, the self-cleavage turned out to be 0.2.

Regarding G29C U34C, the self-cleavage was found to be 0.1.

For G29C U34A, the self-cleavage is 0.28.

In the case of G29U G35U, the self-cleavage was 0.14.

On to G29U G35C, for which the self-cleavage was found to be 0.08.

With G29U G35A, the self-cleavage is 0.32.

Consider G29U C31A, for which the self-cleavage amounted to 0.15.

Regarding G29U C31U, the self-cleavage amounted to 0.19.

For the variant G29U C31G, the self-cleavage was determined as 0.13.

With G29C G35U, the self-cleavage amounted to 0.06.

Take G29C G35C: the self-cleavage was 0.15.

As to G29C G35A, the self-cleavage came to 0.13.

As to U28G G33A, the self-cleavage is 0.11.

In the case of U28G G33C, the self-cleavage is 0.05.

Consider U28G G33U, for which the self-cleavage came out at 0.06.

On to G29A A39U, for which the self-cleavage came to 0.93.

Turning to G29A A39G, the self-cleavage came out at 0.07.

Take G29A A39C: the self-cleavage was determined as 0.21.

For the variant U28C C42G, the self-cleavage was determined as 0.13.

With U28C C42U, the self-cleavage turned out to be 0.15.

With U28C C42A, the self-cleavage was found to be 0.16.

In the case of G29A C42A, the self-cleavage is 0.16.

As for G29A C42U, the self-cleavage came to 0.42.

As for G29A C42G, the self-cleavage was found to be 0.04.

With U28A G35U, the self-cleavage was 0.18.

For the variant U28A G35C, the self-cleavage was determined as 0.08.

For the variant U28A G35A, the self-cleavage was 0.15.

As for U28A C46U, the self-cleavage was determined as 0.66.

For U28A C46A, the self-cleavage is 1.23.

As for U28A C46G, the self-cleavage amounted to 0.87.

In the case of U28A G44C, the self-cleavage worked out at 0.62.

Regarding U28A G44U, the self-cleavage was found to be 0.33.

On to U28A G44A, for which the self-cleavage came out at 0.23.

In the case of U28C C37G, the self-cleavage amounted to 0.01.

As to U28C C37A, the self-cleavage stood at 0.03.

With U28C C37U, the self-cleavage is 0.06.

Take U28C C31G: the self-cleavage is 0.16.

Take U28C C31U: the self-cleavage amounted to 0.45.

U28C C31A: the self-cleavage is 0.87.

Turning to G27U G36U, the self-cleavage came out at 0.04.

In the case of G27U G36C, the self-cleavage amounted to 0.1.

Turning to G27U G36A, the self-cleavage stood at 0.4.

Take U28G C31G: the self-cleavage is 0.28.

In the case of U28G C31U, the self-cleavage was 0.47.

Consider U28G C31A, for which the self-cleavage came to 0.22.

U28A U34A: the self-cleavage was determined as 0.44.

For U28A U34G, the self-cleavage was 0.11.

With U28A U34C, the self-cleavage is 0.07.

In the case of G29C G40C, the self-cleavage is 0.05.

As for G29C G40A, the self-cleavage amounted to 0.07.

As for G29C G40U, the self-cleavage was found to be 0.07.

With U28C A41U, the self-cleavage stood at 0.45.

For the variant U28C A41G, the self-cleavage was found to be 0.43.

U28C A41C: the self-cleavage worked out at 0.03.

As to G29C A41G, the self-cleavage was 0.21.

For G29C A41U, the self-cleavage amounted to 0.32.

With G29C A41C, the self-cleavage stood at 0.04.

Turning to G29U C42U, the self-cleavage was 0.44.

With G29U C42A, the self-cleavage turned out to be 0.14.

Consider G29U C42G, for which the self-cleavage was found to be 0.04.

In the case of U28G G35A, the self-cleavage worked out at 0.14.

As to U28G G35C, the self-cleavage came to 0.07.

Consider U28G G35U, for which the self-cleavage was found to be 0.09.

For G27U G33U, the self-cleavage worked out at 0.07.

G27U G33C: the self-cleavage was 0.07.

For G29C A39U, the self-cleavage turned out to be 0.15.

In the case of G29C A39C, the self-cleavage is 0.06.

As to G29C A39G, the self-cleavage stood at 0.03.

On to G29A C31U, for which the self-cleavage came to 0.95.

G29A C31G: the self-cleavage came to 0.39.

In the case of G29A C31A, the self-cleavage came to 0.43.

Consider U28G U43C, for which the self-cleavage was determined as 0.08.

Take U28G U43G: the self-cleavage was found to be 0.

Take U28G U43A: the self-cleavage is 0.06.

As to G29C C42U, the self-cleavage stood at 0.22.
